Data on 1 molecule can be found in patent publication US20080090770A1, “Modulation of Muc1 Mediated Signal Transduction” (priority 2003, published 2008).

Some results are limits rather than exact numbers.

In the assay the target is GST-RIM2 (KIAA0751) PDZ domain 1 (human). Put plainly: modified ELISA, plated GST-RIM2 PDZ domain, biotinylated peptide 0.001-10 µM, curve fit; Relative EC50.

YGRKKRRQRRRARGRRETWV (modifications not checked) [… (SEQ ID NO: 170)] returned an EC50 of under 10 nM.
